From the RNAGym collection of RNA variant scans (doi:10.1093/molbev/msab373)

B1: Azoarcus group I ribozyme (parent)
chain: GUGCCUUGCGCCGGGAAACCACGCAAGGGAUGGUGUCAAAUUCGGCGAAACCUAAGCGCCCGCCCGGGCGUAUGGCAACGCCGAGCCAAGCUUCGGCGCCUGCGCCGAUGAAGGUGUAGAGACUAGACGGCACCCACCUAAGGCAAACGCUAUGGUGAAGGCAUAGUCCAGGGAGUGGCGAAAGUCACACAAACCGG

Variants of: B1
Experiment: reverse-splicing fitness (ratio to wild type); higher = more active; in vitro selection; Mg2+ level not given
Procedure, shortened: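 An in vitro group I ribozyme library with randomized positions was T7-transcribed and gel-purified. In triplicate, 10 pmol RNA in EPPS pH 7.5 was reacted with 50 pmoles of a 30-nt RNA substrate for 1 h at 37 °C across several added MgCl2 levels (1–48 mM), then stopped with EDTA. Products were reverse transcribed from a substrate-complementary primer, PCR-amplified and sequenced (HiSeq 4000). Fitness is a variant's read proportion after selection over that before, normalised to wild type.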

Point of comparison: GUGCCUUGCGCCGGGAAACCACGCAAGGGAUGGUGUCAAAUUCGGCGAAACCUAAGCGCCCGCCCGGGCGUAUGGCAACGCCGAGCCAAGCUUCGGCGCCUGCGCCGAUGUAGGUGUAGGGACUAGACGGCACCCACCUAAGGCAAACGGUAUGGUGAAGGCAUAGUCUAGGGAGCGGCGAAAGUCACACAAACCGG [A111U A120G C150G C169U U176C], reverse-splicing fitness 0.0149. Against it:
- GUGCCUUGCGCCGGGAAACCACGCAAGGGAUGGUGUCAAAUUCGGCGAAACCUAAGCGCCCGCCCGGGCGUAUGGCAACGCCGAGCCAAGCUUCGGCGCCUGCGCCGAUGUAGGUGUAGGGACUAGACGGCACCCACCUAAGGCAAACGGUAUGGUGAAGGCAUAGUCAAGGGAGCGGCGAAAGUCACACAAACCGG [A111U A120G C150G C169A U176C] — lower, 0.00933
- GUGCCUUGCGCCGGGAAACCACGCAAGGGAUGGUGUCAAAUUCGGCGAAACCUAAGCGCCCGCCCGGGCGUAUGGCAACGCCGAGCCAAGCUUCGGCGCCUGCGCCGAUGUAGGUGUAGGGACUAGACGGCACCCACCUAAGGCAAACGGUAUGGUGAAGGCAUAGUCAAGGGAGGGGCGAAAGUCACACAAACCGG [A111U A120G C150G C169A U176G] — lower, 0.0057
- GUGCCUUGCGCCGGGAAACCACGCAAGGGAUGGUGUCAAAUUCGGCGAAACCUAAGCGCCCGCCCGGGCGUAUGGCAACGCCGAGCCAAGCUUCGGCGCCUGCGCCGAUGUAGGUGUAGGGACUAGACGGCACCCACCUAAGGCAAACGGUAUGGUGAAGGCAUAGUCAAGGGAGAGGCGAAAGUCACACAAACCGG [A111U A120G C150G C169A U176A] — lower, 0.00974
- GUGCCUUGCGCCGGGAAACCACGCAAGGGAUGGUGUCAAAUUCGGCGAAACCUAAGCGCCCGCCCGGGCGUAUGGCAACGCCGAGCCAAGCUUCGGCGCCUGCGCCGAUGUAGGUGUAGGGACUAGACGGCACCCACCUAAGGCAAACGAUAUGGUGAAGGCAUAGUCCAGGGAGAGGCGAAAGUCACACAAACCGG [A111U A120G C150A U176A] — lower, 0.0147
- GUGCCUUGCGCCGGGAAACCACGCAAGGGAUGGUGUCAAAUUCGGCGAAACCUAAGCGCCCGCCCGGGCGUAUGGCAACGCCGAGCCAAGCUUCGGCGCCUGCGCCGAUGUAGGUGUAGGGACUAGACGGCACCCACCUAAGGCAAACGAUAUGGUGAAGGCAUAGUCCAGGGAGGGGCGAAAGUCACACAAACCGG [A111U A120G C150A U176G] — lower, 0.00685
- GUGCCUUGCGCCGGGAAACCACGCAAGGGAUGGUGUCAAAUUCGGCGAAACCUAAGCGCCCGCCCGGGCGUAUGGCAACGCCGAGCCAAGCUUCGGCGCCUGCGCCGAUGUAGGUGUAGGGACUAGACGGCACCCACCUAAGGCAAACGAUAUGGUGAAGGCAUAGUCCAGGGAGCGGCGAAAGUCACACAAACCGG [A111U A120G C150A U176C] — higher, 0.0216
- GUGCCUUGCGCCGGGAAACCACGCAAGGGAUGGUGUCAAAUUCGGCGAAACCUAAGCGCCCGCCCGGGCGUAUGGCAACGCCGAGCCAAGCUUCGGCGCCUGCGCCGAUGUAGGUGUAGGGACUAGACGGCACCCACCUAAGGCAAACGGUAUGGUGAAGGCAUAGUCCAGGGAGUGGCGAAAGUCACACAAACCGG [A111U A120G C150G] — higher, 0.0154
- GUGCCUUGCGCCGGGAAACCACGCAAGGGAUGGUGUCAAAUUCGGCGAAACCUAAGCGCCCGCCCGGGCGUAUGGCAACGCCGAGCCAAGCUUCGGCGCCUGCGCCGAUGUAGGUGUAGGGACUAGACGGCACCCACCUAAGGCAAACGAUAUGGUGAAGGCAUAGUCAAGGGAGGGGCGAAAGUCACACAAACCGG [A111U A120G C150A C169A U176G] — lower, 0.00606
- GUGCCUUGCGCCGGGAAACCACGCAAGGGAUGGUGUCAAAUUCGGCGAAACCUAAGCGCCCGCCCGGGCGUAUGGCAACGCCGAGCCAAGCUUCGGCGCCUGCGCCGAUGUAGGUGUAGGGACUAGACGGCACCCACCUAAGGCAAACGAUAUGGUGAAGGCAUAGUCAAGGGAGCGGCGAAAGUCACACAAACCGG [A111U A120G C150A C169A U176C] — higher, 0.0201
- GUGCCUUGCGCCGGGAAACCACGCAAGGGAUGGUGUCAAAUUCGGCGAAACCUAAGCGCCCGCCCGGGCGUAUGGCAACGCCGAGCCAAGCUUCGGCGCCUGCGCCGAUGUAGGUGUAGGGACUAGACGGCACCCACCUAAGGCAAACGAUAUGGUGAAGGCAUAGUCAAGGGAGAGGCGAAAGUCACACAAACCGG [A111U A120G C150A C169A U176A] — higher, 0.0237
- GUGCCUUGCGCCGGGAAACCACGCAAGGGAUGGUGUCAAAUUCGGCGAAACCUAAGCGCCCGCCCGGGCGUAUGGCAACGCCGAGCCAAGCUUCGGCGCCUGCGCCGAUGUAGGUGUAGGGACUAGACGGCACCCACCUAAGGCAAACGAUAUGGUGAAGGCAUAGUCGAGGGAGAGGCGAAAGUCACACAAACCGG [A111U A120G C150A C169G U176A] — higher, 0.0251
- GUGCCUUGCGCCGGGAAACCACGCAAGGGAUGGUGUCAAAUUCGGCGAAACCUAAGCGCCCGCCCGGGCGUAUGGCAACGCCGAGCCAAGCUUCGGCGCCUGCGCCGAUGUAGGUGUAGGGACUAGACGGCACCCACCUAAGGCAAACGAUAUGGUGAAGGCAUAGUCGAGGGAGCGGCGAAAGUCACACAAACCGG [A111U A120G C150A C169G U176C] — higher, 0.0291
- GUGCCUUGCGCCGGGAAACCACGCAAGGGAUGGUGUCAAAUUCGGCGAAACCUAAGCGCCCGCCCGGGCGUAUGGCAACGCCGAGCCAAGCUUCGGCGCCUGCGCCGAUGUAGGUGUAGGGACUAGACGGCACCCACCUAAGGCAAACGAUAUGGUGAAGGCAUAGUCGAGGGAGGGGCGAAAGUCACACAAACCGG [A111U A120G C150A C169G U176G] — lower, 0.00494
- GUGCCUUGCGCCGGGAAACCACGCAAGGGAUGGUGUCAAAUUCGGCGAAACCUAAGCGCCCGCCCGGGCGUAUGGCAACGCCGAGCCAAGCUUCGGCGCCUGCGCCGAUGUAGGUGUAGGGACUAGACGGCACCCACCUAAGGCAAACGGUAUGGUGAAGGCAUAGUCUAGGGAGGGGCGAAAGUCACACAAACCGG [A111U A120G C150G C169U U176G] — lower, 0.00577
